Reference: patent US20250258178A1 (SHIONOGI, published 2025)
Each block holds one binder with its values, some of them ahead of it.

What was measured:
Test in all cases: peptide microarray, fluorescent anti-mouse IgG
Peptide #8 = target: T1, Peptide #8 (human)
T1 construct: 15-mer of human HRG printed on a PEPperCHIP peptide microarray
T1 peptide: PLPQGPPPLLPMSCS
Procedure: (§1) An overlapping peptide scanning method was performed to find out specific antibody-binding peptide epitopes. The amino acid sequence of the HRG protein was obtained in NCBI protein database. PEPperPrint (registered trademark) (Heidelberg, Germany) was commissioned to prepare PEPperCHIP peptide microarrays designed from HRG protein sequences. Each peptide consisted of an overlapping peptide library having 15 amino acid residues overlapping 14 amino acid residues and was extended at the N- and C-terminus with a neutral GSGSGSG linker to ensure that the peptides were separated from each other. […] After treatment of 21 types of anti-HRG monoclonal antibodies, it stained with an anti-mouse IgG polyclonal secondary antibody followed by reading fluorescence intensity on a scanner to quantify protein-antibody binding.
(§2) Each microarray was processed as follows. Before incubation with a sample, a standard buffer was applied on slides followed by treating with a blocking buffer. The microarray was treated with a fluorescently-labeled anti-mouse IgG secondary antibody followed by the measurement of background fluorescence intensity caused by non-specific interactions using a scanner.
(§3) The microarray was incubated with the 21 types of anti-HRG monoclonal antibodies. The microarray was stained with a fluorescently labeled anti-mouse IgG secondary antibody. The fluorescence intensity at each position was measured by a scanner.

Peptide #7 = target: T2, Peptide #7 (human)
T2 construct: 15-mer of human HRG printed on a PEPperCHIP peptide microarray
T2 peptide: PPLPQGPPPLLPMSC
Procedure: as §1, §2, §3

Peptide #2 = target: T3, Peptide #2 (human)
T3 construct: 15-mer of human HRG printed on a PEPperCHIP peptide microarray
T3 peptide: DHSHGPPLPQGPPPL
Procedure: as §1, §2, §3

Peptide #3 = target: T4, Peptide #3 (human)
T4 construct: 15-mer of human HRG printed on a PEPperCHIP peptide microarray
T4 peptide: HSHGPPLPQGPPPLL
Procedure: as §1, §2, §3

Peptide #6 = target: T5, Peptide #6 (human)
T5 construct: 15-mer of human HRG printed on a PEPperCHIP peptide microarray
T5 peptide: GPPLPQGPPPLLPMS
Procedure: as §1, §2, §3

Peptide #4 = target: T6, Peptide #4 (human)
T6 construct: 15-mer of human HRG printed on a PEPperCHIP peptide microarray
T6 peptide: SHGPPLPQGPPPLLP
Procedure: as §1, §2, §3

Peptide #5 = target: T7, Peptide #5 (human)
T7 construct: 15-mer of human HRG printed on a PEPperCHIP peptide microarray
T7 peptide: HGPPLPQGPPPLLPM
Procedure: as §1, §2, §3

Peptide #16 = target: T8, Peptide #16 (human)
T8 construct: 15-mer of human HRG on the peptide microarray; the printed position spans only 14 residues
T8 peptide: HPHGHHPHGHHPHCH
Procedure: as §1, §2, §3

Peptide #19 = target: T9, Peptide #19 (human)
T9 construct: 15-mer of human HRG printed on a PEPperCHIP peptide microarray
T9 peptide: GHHPHGHHPHCHDFQ
Procedure: as §1, §2, §3

Peptide #22 = target: T10, Peptide #22 (human)
T10 construct: 15-mer of human HRG printed on a PEPperCHIP peptide microarray
T10 peptide: PHGHHPHCHDFQDYG
Procedure: as §1, §2, §3

Peptide #18 = target: T11, Peptide #18 (human)
T11 construct: 15-mer of human HRG printed on a PEPperCHIP peptide microarray
T11 peptide: HGHHPHGHHPHCHDF
Procedure: as §1, §2, §3

Peptide #20 = target: T12, Peptide #20 (human)
T12 construct: 15-mer of human HRG printed on a PEPperCHIP peptide microarray
T12 peptide: HHPHGHHPHCHDFQD
Procedure: as §1, §2, §3

Peptide #17 = target: T13, Peptide #17 (human)
T13 construct: 15-mer of human HRG printed on a PEPperCHIP peptide microarray
T13 peptide: PHGHHPHGHHPHCHD
Procedure: as §1, §2, §3

Peptide #23 = target: T14, Peptide #23 (human)
T14 construct: 15-mer of human HRG printed on a PEPperCHIP peptide microarray
T14 peptide: HGHHPHCHDFQDYGP
Procedure: as §1, §2, §3

Peptide #24 = target: T15, Peptide #24 (human)
T15 construct: 15-mer of human HRG printed on a PEPperCHIP peptide microarray
T15 peptide: GHHPHCHDFQDYGPC
Procedure: as §1, §2, §3

Peptide #11 = target: T16, Peptide #11 (human)
T16 construct: 15-mer of human HRG on the peptide microarray; the printed position spans only 14 residues
T16 peptide: HPHGHHPHGHHPHGH
Procedure: as §1, §2, §3

Peptide #21 = target: T17, Peptide #21 (human)
T17 construct: 15-mer of human HRG printed on a PEPperCHIP peptide microarray
T17 peptide: HPHGHHPHCHDFQDY
Procedure: as §1, §2, §3

Peptide #25 = target: T18, Peptide #25 (human)
T18 construct: 15-mer of human HRG printed on a PEPperCHIP peptide microarray
T18 peptide: HHPHCHDFQDYGPCD
Procedure: as §1, §2, §3

Peptide #12 = target: T19, Peptide #12 (human)
T19 construct: 15-mer of human HRG on the peptide microarray; the printed position spans only 14 residues
T19 peptide: PHGHHPHGHHPHGHH
Procedure: as §1, §2, §3

Peptide #14 = target: T20, Peptide #14 (human)
T20 construct: 15-mer of human HRG on the peptide microarray; the printed position spans only 14 residues
T20 peptide: GHHPHGHHPHGHHPH
Procedure: as §1, §2, §3

Peptide #15 = target: T21, Peptide #15 (human)
T21 construct: 15-mer of human HRG on the peptide microarray; the printed position spans only 14 residues
T21 peptide: HHPHGHHPHGHHPHC
Procedure: as §1, §2, §3

Peptide #26 = target: T22, Peptide #26 (human)
T22 construct: 15-mer of human HRG printed on a PEPperCHIP peptide microarray
T22 peptide: HPHCHDFQDYGPCDP
Procedure: as §1, §2, §3

Peptide #13 = target: T23, Peptide #13 (human)
T23 construct: 15-mer of human HRG on the peptide microarray; the printed position spans only 14 residues
T23 peptide: HGHHPHGHHPHGHHP
Procedure: as §1, §2, §3

binding result (Peptide #8): binds
binding result (Peptide #7): binds
binding result (Peptide #2): binds
binding result (Peptide #3): binds
binding result (Peptide #6): binds
binding result (Peptide #4): binds
binding result (Peptide #5): binds
B1: anti-HRG monoclonal antibody 69-1A (antibody, V domains shown)
VH: EVKLEESGGGLVQPGGSMKLSCAASGFTFSDAWMDWVRQSPEKGLEWVAEIRSKANNHGTYYAESVKGRFTISRDDSKSSVYLRMNSLSAEDTGIYYCTRPFAYWGQGTLVTVSA
VL: DVVVTQTPLSLPVSLGDQASISCRSSQSLVHIDGNTYFHWYVQKPGQSPKLLIYKVSNRFSGVPDRFSGSGSGTDFTLKISRVEAEDLGVYFCSQSTHVPLTFGAGTKLELK
notes: Mouse hybridoma monoclonal; also called clone No. 69-1A

binding result (Peptide #16): binds
binding result (Peptide #19): binds
binding result (Peptide #22): binds
binding result (Peptide #18): binds
binding result (Peptide #20): binds
binding result (Peptide #17): binds
binding result (Peptide #23): binds
binding result (Peptide #24): binds
binding result (Peptide #11): binds
binding result (Peptide #21): binds
binding result (Peptide #25): binds
binding result (Peptide #12): binds
binding result (Peptide #14): binds
binding result (Peptide #15): binds
binding result (Peptide #26): binds
binding result (Peptide #13): binds
B2: anti-HRG monoclonal antibody 75-2D (antibody, V domains shown)
VH: QVQLQQSGAELMKPGASVKISCKATGYTFSSYWIEWVKQRPGHGLEWIGEILPGSGRTNYNEKFKGKATFTADTSSNTAYMQLSSLTSEDSAVYYCARYSYFYYFDYWGQGTTLTVSS
VL: DNVLTQSPAIMSASLGERVTMTCTASSSVSSSYLHWYQQKPGSSPKLWIYSTSNLASGVPARFSGSGSGTSYSLTISSMEAEDAATYYCHQYHRSPWTFGGGTKLEIK
notes: Mouse hybridoma monoclonal; also called clone No. 75-2D
